Assay results taken from patent US20050266509.
Residue numbers refer to the chain shown, from its start.

B1: PTPMEG, full length clone (amino-terminal myc-tag, c-terminal HA tag) (protein)
chain: MTSRFRLPAGRTYNVRASELARDRQHTEVVCNILLLDNTVQAFKVNKHDQGQVLLDVVFKHLDLTEQDYFGLQLADDSTDNPRWLDPNKPIRKQLKRGSPYSLNFRVKFFVSDPNKLQEEYTRYQYFLQIKQDILTGRLPCPSNTAALLASFAVQSELGDYDQSENLSGYLSDYSFIPNQPQDFEKEIAKLHQQHIGLSPAEAEFNYLNTARTLELYGVEFHYARDQSNNEIMIGVMSGGILIYKNRVRMNTFPWLKIVKISFKCKQFFIQLRKELHESRETLLGFNMVNYRACKNLWKACVEHHTFFRLDRPLPPQKNFFAHYFTLGSKFRYCGRTEVQSVQYGKEKANKDRVFARSPSKPLARKLMDWEVVSRNSISDDRLETQSLPSRSPPGTPNHRNSTFTQEGTRLRPSSVGHLVDHMVHTSPSEVFVNQRSPSSTQANSIVLESSPSQETPGDGKPPALPPKQSKKNSWNQIHYSHSQQDLESHINETFDIPSSPEKPTPNGGIPHDNLVLIRMKPDENGRFGFNVKGGYDQKMPVIVSRVAPGTPADLCVPRLNEGDQVVLINGRDIAEHTHDQVVLFIKASCERHSGELMLLVRPNAVYDVVEEKLENEPDFQYIPEKAPLDSVHQDDHSLRESMIQLAEGLITGTVLTQFDQLYRKKPGMTMSCAKLPQNISKNRYRDISPYDATRVILKGNEDYINANYINMEIPSSSIINQYIACQGPLPHTCTDFWQMTWEQGSSMVVMLTTQVERGRVKCHQYWPEPTGSSSYGCYQVTCHSEEGNTAYIFRKMTLFNQEKNESRPLTQIQYIAWPDHGVPDDSSDFLDFVCHVRNKRAGKEEPVVVHCSAGIGRTGVLITMETAMCLIECNQPVYPLDIVRTMRDQRAMMIQTPSQYRFVCEAILKVYEEGFVKPLTTSTNK
B2: PTPMEG-CS (inactive PTPase), full length clone (amino-terminal myc-tag, c-terminal HA tag) (protein)
chain: B1 chain with C852S

Assays:
[1] = biological target: NR2B, full length clone (NMDA receptor subunit), Q13224
Chain of NR2B, full length clone (NMDA receptor subunit), Q13224 (Q13224 27-1484): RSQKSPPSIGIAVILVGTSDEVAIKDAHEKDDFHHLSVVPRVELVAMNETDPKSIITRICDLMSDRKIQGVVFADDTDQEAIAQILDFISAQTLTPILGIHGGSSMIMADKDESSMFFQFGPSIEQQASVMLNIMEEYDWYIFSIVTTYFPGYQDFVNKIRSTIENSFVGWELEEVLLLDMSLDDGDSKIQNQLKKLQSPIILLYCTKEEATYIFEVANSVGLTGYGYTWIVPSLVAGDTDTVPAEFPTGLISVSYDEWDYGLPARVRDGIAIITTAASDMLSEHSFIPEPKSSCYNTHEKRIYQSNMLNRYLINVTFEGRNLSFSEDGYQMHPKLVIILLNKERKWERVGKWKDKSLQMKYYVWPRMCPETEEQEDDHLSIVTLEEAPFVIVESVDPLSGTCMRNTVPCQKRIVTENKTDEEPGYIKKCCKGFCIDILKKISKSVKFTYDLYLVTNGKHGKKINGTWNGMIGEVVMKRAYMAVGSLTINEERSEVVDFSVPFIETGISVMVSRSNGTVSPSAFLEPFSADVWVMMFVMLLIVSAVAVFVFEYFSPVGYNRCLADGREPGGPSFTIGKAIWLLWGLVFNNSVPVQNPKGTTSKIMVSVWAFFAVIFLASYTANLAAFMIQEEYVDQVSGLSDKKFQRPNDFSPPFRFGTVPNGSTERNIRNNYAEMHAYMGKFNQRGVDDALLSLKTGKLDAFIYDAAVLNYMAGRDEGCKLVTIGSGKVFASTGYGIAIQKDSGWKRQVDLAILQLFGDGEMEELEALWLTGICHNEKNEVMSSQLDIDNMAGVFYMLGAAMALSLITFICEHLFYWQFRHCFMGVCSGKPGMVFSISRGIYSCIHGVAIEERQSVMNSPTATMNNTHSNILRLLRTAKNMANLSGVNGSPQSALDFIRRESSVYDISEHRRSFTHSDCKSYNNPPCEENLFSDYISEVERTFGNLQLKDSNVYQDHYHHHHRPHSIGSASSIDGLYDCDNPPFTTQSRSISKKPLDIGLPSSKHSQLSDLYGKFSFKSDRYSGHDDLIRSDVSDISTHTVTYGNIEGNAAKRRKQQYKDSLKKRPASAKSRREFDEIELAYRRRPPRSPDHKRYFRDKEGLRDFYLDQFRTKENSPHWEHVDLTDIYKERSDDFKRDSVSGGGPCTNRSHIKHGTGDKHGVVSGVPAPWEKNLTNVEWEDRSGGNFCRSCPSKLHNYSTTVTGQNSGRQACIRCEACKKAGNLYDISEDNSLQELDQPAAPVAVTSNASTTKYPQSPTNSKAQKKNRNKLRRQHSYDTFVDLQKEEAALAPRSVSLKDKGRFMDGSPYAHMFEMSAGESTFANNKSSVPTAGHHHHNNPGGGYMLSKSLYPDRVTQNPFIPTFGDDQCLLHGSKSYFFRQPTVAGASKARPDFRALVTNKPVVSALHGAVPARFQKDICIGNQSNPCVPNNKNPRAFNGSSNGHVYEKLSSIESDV

[2] = biological target: constitutive active Src kinase

Protein | NR2B tyrosine phosphorylation, western blot with an NR2B phosphospecific antibody [1] | Src phosphorylation at position 418, western blot with anti PY418 antibody [2] | phosphorylation at Y418, western blot with a Src/fyn specific phosphoantibody [2] | NR2B tyrosine phosphorylation, western blot [1] | Src phosphorylation at position 418, western blot [2]
B1 | In presence of the active wildtype PTPMEG phosphatase, both the NR2B subunit as well as Src kinase were dephosphorylated | In presence of the active wildtype PTPMEG phosphatase, both the NR2B subunit as well as Src kinase were dephosphorylated | In presence of PTPMEG (identified with a c-myc antibody from Upstate) there is a dephosphorylation of Src and fyn at position Y418 |  | 
B2 |  |  |  | Dephosphorylation of NR2B and Src kinase was reversed by addition of dephostatin, and unaffected in presence of the dominant negative form of PTPMEG (CS) | Dephosphorylation of NR2B and Src kinase was reversed by addition of dephostatin, and unaffected in presence of the dominant negative form of PTPMEG (CS)
